Columns and labels:
[1] = target: T1, soluble CD73 dimer (human, UniProt P21589 27-549, limits assumed); assay: SPR, antibody captured on chip, CD73 in flow; biphasic fit, share after 300 s binding phase of the component with ka 1.58E+05 1/Ms
T1 construct: CD73 in the flow (SPR) or in solution (BLI binning); also called soluble human CD73
T1 sequence: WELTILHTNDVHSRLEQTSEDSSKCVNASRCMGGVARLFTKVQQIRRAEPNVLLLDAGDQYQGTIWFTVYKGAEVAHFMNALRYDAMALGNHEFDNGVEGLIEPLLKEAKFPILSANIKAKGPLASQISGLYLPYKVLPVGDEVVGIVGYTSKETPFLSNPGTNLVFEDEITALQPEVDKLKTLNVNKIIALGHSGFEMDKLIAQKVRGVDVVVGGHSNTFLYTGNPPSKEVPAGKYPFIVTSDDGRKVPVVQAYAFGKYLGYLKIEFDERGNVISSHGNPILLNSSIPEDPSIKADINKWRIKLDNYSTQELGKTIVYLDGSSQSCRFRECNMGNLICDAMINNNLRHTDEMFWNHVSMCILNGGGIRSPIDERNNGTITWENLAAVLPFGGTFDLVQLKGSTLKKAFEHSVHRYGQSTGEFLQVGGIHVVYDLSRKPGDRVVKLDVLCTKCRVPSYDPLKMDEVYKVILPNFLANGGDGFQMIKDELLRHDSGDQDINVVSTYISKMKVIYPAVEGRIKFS

[2] = target: T1, soluble CD73 dimer; assay: SPR, antibody captured on Protein A chip, CD73 in flow; biphasic fit, component of abundance 57%
[3] = target: T1, soluble CD73 dimer; assay: SPR, antibody captured on chip, CD73 in flow; biphasic fit, share by T0 intercept of the component with kd 4.06E-03 1/s
[4] = target: T1, soluble CD73 dimer; assay: SPR, antibody captured on Protein A chip, CD73 in flow; Langmuir 1:1 fit
[5] = target: T1, soluble CD73 dimer; assay: SPR, antibody captured on Protein A chip, CD73 in flow; biphasic fit, component of abundance 9%
[6] = target: T1, soluble CD73 dimer; assay: SPR dissociation kinetics
[7] = target: T1, soluble CD73 dimer; assay: SPR, antibody captured on chip, CD73 in flow; biphasic fit, share after 300 s binding phase of the component with ka 8.50E+05 1/Ms
[8] = target: T1, soluble CD73 dimer; assay: SPR, antibody captured on chip, CD73 in flow; biphasic fit, share by T0 intercept of the component with kd 1.28E-04 1/s
[9] = target: T1, soluble CD73 dimer; assay: SPR, antibody captured on Protein A chip, CD73 in flow; Langmuir ka with major component kd
[10] = target: T2, human CD73 on COR-L23 lung carcinoma cells (human) (UniProt P21589)
T2 sequence: T1 sequence

[11] = target: T2, human CD73 on COR-L23 lung carcinoma cells (human); assay: cell-based or functional assay
[12] = target: T1, soluble CD73 dimer; assay: SPR, antibody captured on Protein A chip, CD73 in flow; biphasic fit, component of abundance 91%
[13] = target: T1, soluble CD73 dimer; assay: SPR, antibody captured on Protein A chip, CD73 in flow; biphasic fit, component of abundance 43%
[14] = target: T1, soluble CD73 dimer; assay: SPR, antibody captured on Protein A chip, CD73 in flow; biphasic fit, component of abundance 85%
[15] = target: T1, soluble CD73 dimer; assay: SPR, antibody captured on Protein A chip, CD73 in flow; biphasic fit, component of abundance 65%
[16] = target: T1, soluble CD73 dimer; assay: SPR, antibody captured on chip, CD73 in flow; biphasic fit, share after 300 s binding phase of the component with ka 1.38E+06 1/Ms
[17] = target: T1, soluble CD73 dimer; assay: SPR, antibody on the solid support, soluble CD73 dimer in solution
[18] = target: T1, soluble CD73 dimer; assay: SPR, antibody captured on chip, CD73 in flow; biphasic fit, share by T0 intercept of the component with kd 2.70E-03 1/s
[19] = target: T1, soluble CD73 dimer; assay: SPR, antibody captured on chip, CD73 in flow; biphasic fit, share after 300 s binding phase of the component with ka 2.81E+05 1/Ms
[20] = target: T1, soluble CD73 dimer; assay: SPR, antibody captured on chip, CD73 in flow; biphasic fit, share by T0 intercept of the component with kd 2.70E-05 1/s
[21] = target: T1, soluble CD73 dimer; assay: SPR; KD from Langmuir ka and kd of the principal dissociation component
[22] = target: T1, soluble CD73 dimer; assay: SPR, antibody captured on Protein A chip, CD73 in flow; biphasic fit, component of abundance 15%
[23] = target: T1, soluble CD73 dimer; assay: SPR, antibody captured on Protein A chip, CD73 in flow; biphasic fit, component of abundance 35%
[24] = target: T1, soluble CD73 dimer; assay: SPR, antibody captured on Protein A chip, CD73 in flow; biphasic fit, component of abundance 86%
[25] = target: T1, soluble CD73 dimer; assay: SPR, antibody captured on chip, CD73 in flow; biphasic fit, share after 300 s binding phase of the component with ka 3.24E+05 1/Ms
[26] = target: T1, soluble CD73 dimer; assay: SPR, antibody captured on chip, CD73 in flow; biphasic fit, share by T0 intercept of the component with kd 7.06E-03 1/s
[27] = target: T1, soluble CD73 dimer; assay: SPR, antibody captured on chip, CD73 in flow; biphasic fit, share after 300 s binding phase of the component with ka 1.50E+06 1/Ms
[28] = target: T1, soluble CD73 dimer; assay: SPR, antibody captured on Protein A chip, CD73 in flow; biphasic fit, component of abundance 70%
[29] = target: T1, soluble CD73 dimer; assay: SPR, antibody captured on chip, CD73 in flow; biphasic fit, share by T0 intercept of the component with kd 7.86E-05 1/s
[30] = target: T1, soluble CD73 dimer; assay: SPR, antibody captured on Protein A chip, CD73 in flow; biphasic fit, component of abundance 14%
[31] = target: T1, soluble CD73 dimer; assay: SPR, antibody captured on Protein A chip, CD73 in flow; biphasic fit, component of abundance 30%
[32] = target: T1, soluble CD73 dimer; assay: SPR, antibody captured on Protein A chip, CD73 in flow; biphasic fit, component of abundance 55%
[33] = target: T1, soluble CD73 dimer; assay: SPR, antibody captured on chip, CD73 in flow; biphasic fit, share after 300 s binding phase of the component with ka 7.03E+05 1/Ms
[34] = target: T1, soluble CD73 dimer; assay: SPR, antibody captured on Protein A chip, CD73 in flow; biphasic fit, component of abundance 45%
[35] = target: T1, soluble CD73 dimer; assay: SPR, antibody captured on chip, CD73 in flow; biphasic fit, share by T0 intercept of the component with kd 2.46E-04 1/s
[36] = target: T1, soluble CD73 dimer; assay: SPR, antibody captured on Protein A chip, CD73 in flow; biphasic fit, component of abundance 100%
[37] = target: T1, soluble CD73 dimer; assay: SPR, antibody captured on chip, CD73 in flow; biphasic fit, share after 300 s binding phase of the component with ka 5.31E+06 1/Ms

B1: E3.2/TB19 (bispecific antibody, part only; not given: E3.2 arm; constant regions, V domains shown, part only)
VH: QEQLQESGPGLVKPSETLSLTCTVSGGSIRNNYYNWIRQPAGKGLEWIGRIYISGTTNSNPSLKSRVTMSIDTSKNQFSLKLSSVTAADTAIYYCAREHYVSGTSLDNWGQGTLVTVSS
VL: EIVMTQSPTTLSLSPGERATLSCRASQSVNTNYFSWYQQKPGLTPRLLIYGTSTRATGIPARFSGSGSGTDFTLTISSLQPEDFGIYYCQQDYNLPYTFGQGTYLEIK
- abundance of association component (biphasic fit) [1]: 57%
- kon [2]: 158000 M⁻¹ s⁻¹
- abundance of dissociation component (biphasic fit) [3]: 9%
- koff [4]: 0.000164 s⁻¹
- kon [4]: 364000 M⁻¹ s⁻¹
- koff [5]: 0.00406 s⁻¹
- fold more stable (kd of the principal component) than with either monovalent parental [6]: 5.4 fold
- abundance of association component (biphasic fit) [7]: 43%
- abundance of dissociation component (biphasic fit) [8]: 91%
- Kd [9]: 0.352 nM
- % inhibition of CD73 activity at 1 µg/ml antibody (COR-L23 cells, 4 h, LC/MS); cell E3.2 x TB19 [10]: 95%
- EC50 (nM) of inhibition of CD73 activity (adenosine by LC/MS) [11]: 0.443 nM
- Max Inhib. (projected maximal inhibition at saturating antibody) [11]: 97%
- inhibition of CD73 enzymatic activity on COR-L23 cells at 1 µg/mL [11]: > 95%
- koff [12]: 0.000128 s⁻¹
- kon [13]: 850000 M⁻¹ s⁻¹

B2: TB19/H19 (bispecific antibody, part only; not given: H19 arm; constant regions, V domains shown, part only)
VH: B1 VH
VL: B1 VL
- koff [14]: 2.7e-05 s⁻¹
- kon [15]: 281000 M⁻¹ s⁻¹
- abundance of association component (biphasic fit) [16]: 35%
- fold lower KD than either parental antibody [17]: 15 fold
- abundance of dissociation component (biphasic fit) [18]: 15%
- abundance of association component (biphasic fit) [19]: 65%
- abundance of dissociation component (biphasic fit) [20]: 85%
- fold increase of apparent affinity (KD) over either monovalent parental antibody [21]: 69 fold
- koff [4]: 0.000112 s⁻¹
- kon [4]: 449000 M⁻¹ s⁻¹
- koff [22]: 0.0027 s⁻¹
- fold more stable (kd of the principal component) than with either monovalent parental [6]: 26 fold
- Kd [9]: 0.0602 nM
- % inhibition of CD73 activity at 1 µg/ml antibody (COR-L23 cells, 4 h, LC/MS); cell TB19 x H19 [10]: 97%
- EC50 (nM) of inhibition of CD73 activity (adenosine by LC/MS) [11]: 0.382 nM
- Max Inhib. (projected maximal inhibition at saturating antibody) [11]: 98%
- inhibition of CD73 enzymatic activity on COR-L23 cells at 1 µg/mL [11]: > 95%
- kon [23]: 1.38e+06 M⁻¹ s⁻¹

B3: CL25/TB19 (bispecific antibody, part only; not given: CL25 arm; constant regions, V domains shown, part only)
VH: B1 VH
VL: B1 VL
- koff [24]: 7.86e-05 s⁻¹
- abundance of association component (biphasic fit) [25]: 70%
- abundance of dissociation component (biphasic fit) [26]: 14%
- fold lower KD than either parental antibody [17]: 15 fold
- abundance of association component (biphasic fit) [27]: 30%
- fold increase of apparent affinity (KD) over either monovalent parental antibody [21]: 26 fold
- kon [28]: 324000 M⁻¹ s⁻¹
- abundance of dissociation component (biphasic fit) [29]: 86%
- koff [4]: 0.00013 s⁻¹
- kon [4]: 493000 M⁻¹ s⁻¹
- fold more stable (kd of the principal component) than with either monovalent parental [6]: 8.8 fold
- koff [30]: 0.00706 s⁻¹
- kon [31]: 1.5e+06 M⁻¹ s⁻¹
- Kd [9]: 0.16 nM
- EC50 (nM) of inhibition of CD73 activity (adenosine by LC/MS) [11]: 0.619 nM
- Max Inhib. (projected maximal inhibition at saturating antibody) [11]: 97%

B4: TB19/H7 (bispecific antibody, part only; not given: H7 arm; constant regions, V domains shown, part only)
VH: B1 VH
VL: B1 VL
- kon [32]: 703000 M⁻¹ s⁻¹
- abundance of association component (biphasic fit) [33]: 55%
- kon [34]: 5.31e+06 M⁻¹ s⁻¹
- koff [4]: 0.000149 s⁻¹
- kon [4]: 752000 M⁻¹ s⁻¹
- abundance of dissociation component (biphasic fit) [35]: 100%
- koff [36]: 0.000246 s⁻¹
- Kd [9]: 0.328 nM
- % inhibition of CD73 activity at 1 µg/ml antibody (COR-L23 cells, 4 h, LC/MS); cell TB19 x H7 [10]: 93%
- EC50 (nM) of inhibition of CD73 activity (adenosine by LC/MS) [11]: 0.27 nM
- Max Inhib. (projected maximal inhibition at saturating antibody) [11]: 95%
- abundance of association component (biphasic fit) [37]: 45%

From US20220403041A1 (Sanofi, published 2022)
